Source: the supplement of paper PMC9732359
± gives the uncertainty stated by the source.

assay: protein stability index of a GFP-peptide fusion (yeast GPS) (PSI 1-4); higher = more stable; sorted into four equal gates, so the index is relative within each strain; settings: pdr5∆
How it was run: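 Peptides tiling yeast proteins in 17-residue segments were fused downstream of GFP, with Cherry expressed from the same plasmid. As a pooled library in yeast, mid-log cultures grown in leucine-free medium were sorted into four equal gates by GFP/Cherry fluorescence ratio. Gate plasmids were PCR-amplified and Illumina-sequenced, and barcodes linked reads to strains. Each peptide received a protein stability index equal to the sum of each gate's read frequency times its gate number.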

Work on AGKQLEDGRTLSDYNIQ [RPS31] yielded a protein stability index of 2.94 ± 0.16.

same assay, conditions: san1∆

Going from AAANNNIKPVEQHHINN [GAL11] to AAAQAQSKIDLTKKKNE [SEM1], the protein stability index rises from 2.72 ± 0.077 to 2.94 ± 0.082.

Going from AADILCELQVETYGSME [RPN5] to AAELLDKRIVISIDSWP [DIS3], the protein stability index falls from 3.27 ± 0.1 to 1.55 ± 0.14.

AAEQQSKAFKESSDFGA [SRP54] and AAFKDIAKRQFKEILTV [RRP40] are the same in protein stability index: 2.58 ± 0.082 for the first, 2.58 ± 0.062 for the second.

Going from AAIWTLCKTKMVCETDV [RPO21] to AAKKAMYTLSAQDEVFS [ASC1], the protein stability index rises from 1.44 ± 0.1 to 2.23 ± 0.091.

Going from AAPAGVAGGVAGGEAGE [RPP1A] to AARKAEKAKSAGTQSSK [RPL24A], the protein stability index rises from 1.66 ± 0.28 to 3.22 ± 0.082.

AARKAEKAKSAGVQGSK [RPL24B] and ADAKAFLDSMAQKYASI [FAS2] are within error of each other in protein stability index: 3.18 ± 0.065 for the first, 3.12 ± 0.047 for the second.

Going from ADDEKSDEEEVTEMSNN [BRR2] to ADEEEEIVDTYQEDIFV [ISW2], the protein stability index rises from 2.84 ± 0.054 to 3.43 ± 0.12.

Going from ADGLLQVLVCTATLAWG [BRR2] to ADGPTMREITETIAEAK [RPO21], the protein stability index rises from 2.17 ± 0.18 to 3.39 ± 0.026.

Going from ADGSSYMEQGNNKIITL [SKI6] to ADILCPLLESFITFSLD [IRR1], the protein stability index falls from 2.82 ± 0.04 to 2.17 ± 0.071.

First: ADITDGNNTELTKTTVN [YCG1]
Second: ADKPFTRLTAYQELAYR [YML031W/NDC1]
The protein stability index of the first is higher: 3.33 ± 0.052 for the first, 3.06 ± 0.18 for the second.

ADLMALENATWTMRIEG [SNF12] and ADNNDLQESINHVMYTE [ECM29] are within error of each other in protein stability index: 3.17 ± 0.12 for the first, 3.05 ± 0.1 for the second.

Going from ADVFTDDDLFETLVLSY [YCG1] to AECISLICSIGLHSSEY [ECM29], the protein stability index falls from 2.85 ± 0.064 to 2.2 ± 0.092.

First: AEENLKKRIRLPSEERI [YIL149C/MLP2]
Second: AEKSFKPPKNKYKVVRR [SEC65]
The protein stability index of the first is lower: 2.61 ± 0.08 for the first, 3.21 ± 0.071 for the second.

Compared with AELDPSLRTPIAPKITP [SEC65], AELIPELYSFQQLVDSE [SNF12] is lower in protein stability index: 3 ± 0.082 for the first, 2.67 ± 0.057 for the second.

Going from AELRPLQFKSIREIDVA [RPS7A] to AENMLEELRGQQTEHET [SMC4], the protein stability index rises from 1.97 ± 0.24 to 3.32 ± 0.069.

Going from AESEAITVTAKQQPTMQ [SWI3] to AFEELEGSWDRGIPRIS [PRP8], the protein stability index rises from 2.88 ± 0.071 to 3.36 ± 0.22.

Compared with AFPKDDRSKPVALTSFL [RPL3], AFSYPRMYEEASGKEVE [RPN2] is lower in protein stability index: 3.33 ± 0.054 for the first, 1.28 ± 0.11 for the second.

Compared with AGAVAPEDIWVRAVNTG [RPP0], AGFTHKLSNWLFGWNDL [YDL088C/ASM4] is higher in protein stability index: 1.93 ± 0.28 for the first, 2.9 ± 0.063 for the second.

Compared with AGGAADCQFWETWLGSQ [PRE2], AGKQLEDGRTLSDYNIQ [RPS31] is higher in protein stability index: 2.97 ± 0.09 for the first, 3.6 ± 0.094 for the second.

same assay, conditions: ubr1∆

Going from AAAGAAMIDAGALEEIT [FAS2] to AAANNNIKPVEQHHINN [GAL11], the protein stability index rises from 2.73 ± 0.1 to 2.96 ± 0.062.

AAAQAQSKIDLTKKKNE [SEM1] and AADILCELQVETYGSME [RPN5] are within error of each other in protein stability index: 2.87 ± 0.083 for the first, 3.18 ± 0.23 for the second.

Going from AAELLDKRIVISIDSWP [DIS3] to AAEQQSKAFKESSDFGA [SRP54], the protein stability index rises from 1.95 ± 0.072 to 2.34 ± 0.057.

Going from AAFKDIAKRQFKEILTV [RRP40] to AAIWTLCKTKMVCETDV [RPO21], the protein stability index falls from 2.55 ± 0.05 to 1.47 ± 0.034.

First: AAKKAMYTLSAQDEVFS [ASC1]
Second: AARKAEKAKSAGTQSSK [RPL24A]
The protein stability index of the first is lower: 2.83 ± 0.06 for the first, 3.29 ± 0.043 for the second.

Compared with AARKAEKAKSAGVQGSK [RPL24B], ADAKAFLDSMAQKYASI [FAS2] is lower in protein stability index: 3.29 ± 0.042 for the first, 2.94 ± 0.049 for the second.

Going from ADDEKSDEEEVTEMSNN [BRR2] to ADEEEEIVDTYQEDIFV [ISW2], the protein stability index falls from 3.1 ± 0.048 to 2.48 ± 0.088.

First: ADGLLQVLVCTATLAWG [BRR2]
Second: ADGPTMREITETIAEAK [RPO21]
The protein stability index of the first is lower: 2.14 ± 0.25 for the first, 3.39 ± 0.041 for the second.

Going from ADGSSYMEQGNNKIITL [SKI6] to ADILCPLLESFITFSLD [IRR1], the protein stability index falls from 3.015 ± 0.029 to 2.34 ± 0.064.

ADITDGNNTELTKTTVN [YCG1] and ADKPFTRLTAYQELAYR [YML031W/NDC1] are within error of each other in protein stability index: 3.09 ± 0.053 for the first, 3 ± 0.098 for the second.

ADLMALENATWTMRIEG [SNF12] and ADNNDLQESINHVMYTE [ECM29] are within error of each other in protein stability index: 3.07 ± 0.081 for the first, 3.02 ± 0.054 for the second.

Compared with ADVFTDDDLFETLVLSY [YCG1], AECISLICSIGLHSSEY [ECM29] is higher in protein stability index: 2.06 ± 0.041 for the first, 2.62 ± 0.048 for the second.

AEENLKKRIRLPSEERI [YIL149C/MLP2] and AEKSFKPPKNKYKVVRR [SEC65] are within error of each other in protein stability index: 3.08 ± 0.044 for the first, 3.16 ± 0.13 for the second.

First: AELDPSLRTPIAPKITP [SEC65]
Second: AELIGLQPIFKGEEAKL [SSN3]
The protein stability index of the first is higher: 3.13 ± 0.055 for the first, 1.33 ± 0.2 for the second.

Going from AELIPELYSFQQLVDSE [SNF12] to AELRPLQFKSIREIDVA [RPS7A], the protein stability index falls from 1.87 ± 0.047 to 1.43 ± 0.068.

First: AENMLEELRGQQTEHET [SMC4]
Second: AESEAITVTAKQQPTMQ [SWI3]
The protein stability index of the first is higher: 3.4 ± 0.1 for the first, 3.04 ± 0.035 for the second.

Compared with AESEWNGVNVQTLKGVG [RPC37], AFDLDGTGKSQSGSNSG [ROX3] is higher in protein stability index: 1.13 ± 0.18 for the first, 3.42 ± 0.23 for the second.

Going from AFEELEGSWDRGIPRIS [PRP8] to AFPKDDRSKPVALTSFL [RPL3], the protein stability index falls from 3.3 ± 0.24 to 1.95 ± 0.045.

AFSYPRMYEEASGKEVE [RPN2] and AGAVAPEDIWVRAVNTG [RPP0] are within error of each other in protein stability index: 1.35 ± 0.059 for the first, 1.31 ± 0.29 for the second.

Going from AGFTHKLSNWLFGWNDL [YDL088C/ASM4] to AGGAADCQFWETWLGSQ [PRE2], the protein stability index rises from 2.93 ± 0.037 to 3.77 ± 0.13.

Work on AGKQLEDGRTLSDYNIQ [RPS31] yielded a protein stability index of 3.15 ± 0.1.
